Assay results as given in paper PMC5360572 (EBioMedicine, 2017).

B2: human PD-L2 Ig fusion protein (Fc fusion, UniProt Q9BQ51 20-220, looked up)
chain: LFTVTVPKELYIIEHGSNVTLECNFDTGSHVNLGAITASLQKVENDTSPHRERATLLEEQLPLGKASFHIPQVQVRDEGQYQCIIIYGVAWDYKYLTLKVKASYRKINTHILKVPETDEVELTCQATGYPLAEVSWPNVSVPANTSHSRTPEGLYQVTSVLRLKPPPGRNFSCVFWNTHVRELTLASIDLQSQMEPRTHPT
notes: characterized by SEC prior to use; also called huPD-L2; B7-DC; source: bought: R&D Systems

What was measured:
[1] = biological target: human mature dendritic cells expressing PD-L1 and PD-L2
[2] = biological target: T1, human PD-L1 Ig fusion protein (human, UniProt Q9NZQ7 19-238); experiment: SPR; BIAcore 3000, 25 °C; PD-L1-Ig or PD-L2-Ig immobilized on CM5 chip by amine coupling; soluble monomeric PD-1 or mutants (0.01–100 μM) injected at 20 μl/min; equilibrium Kd, 1:1 Langmuir model; details: both partners purified
T1 construct: characterized by SEC prior to use; detected on cells with anti-human IgG Fcγ-specific F(ab')2; also called huPD-L1; B7-H1; source: bought: R&D Systems
T1 sequence (Q9NZQ7 19-238): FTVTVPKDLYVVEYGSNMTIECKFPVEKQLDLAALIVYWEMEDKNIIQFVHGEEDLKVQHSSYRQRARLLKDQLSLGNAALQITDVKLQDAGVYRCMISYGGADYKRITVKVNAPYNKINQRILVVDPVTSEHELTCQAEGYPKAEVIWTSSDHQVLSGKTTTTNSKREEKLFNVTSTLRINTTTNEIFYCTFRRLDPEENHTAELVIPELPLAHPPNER

[3] = biological target: B2; experiment: as above; details: both partners purified
[4] = biological target: T2, full-length human PD-1 I126A, on HEK293 cells (human, UniProt Q15116 25-288, I126A); experiment: flow cytometry on cells; HEK293 cells transiently transfected with full-length wild type or mutant human PD-1, incubated with PD-L1 or PD-L2 Ig fusion proteins (0.01–50 μg/ml) for one hour on ice; APC anti-human IgG F(ab')2 Fcγ specific; MFI normalized to wild type PD-1 binding; relative binding at 0.5 μg/ml ligand; details: one partner purified
T2 construct: Gateway pEF5/FRT/V5-DEST destination vector; source: HEK293, transiently transfected, on the cell surface
T2 sequence (Q15116 25-288 I126A): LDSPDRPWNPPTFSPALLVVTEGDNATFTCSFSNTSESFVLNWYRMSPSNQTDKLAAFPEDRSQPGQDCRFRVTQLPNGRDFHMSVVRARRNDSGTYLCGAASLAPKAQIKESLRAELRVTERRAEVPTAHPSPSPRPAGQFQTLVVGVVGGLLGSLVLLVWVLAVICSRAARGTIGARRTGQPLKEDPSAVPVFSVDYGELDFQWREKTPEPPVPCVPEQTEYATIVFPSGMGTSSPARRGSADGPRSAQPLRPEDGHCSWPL

For “high-affinity human PD-1 (A132L) Ig fusion protein (from UniProt Q15116 25-170) (Fc fusion)”, the T cell proliferation (3H-thymidine uptake) in allogeneic MLR with dendritic cells pre-treated with HA PD-1 Ig (0.5–5 μg/ml), against untreated control [1] was > 50% and the production of IFN-γ and IL-12p70 in allogeneic MLR, against untreated control (no Ig) [1] was > 6 fold.

B1: mouse PD-1, wild type (soluble, monomeric) (domain or fragment, UniProt Q02242 25-169, looked up)
chain: LEVPNGPWRSLTFYPAWLTVSEGANATFTCSLSNWSEDLMLNWNRLSPSNQTEKQAAFCNGLSQPVQDARFQIIQLPNRHDFHMNILDTRRNDSGIYLCGAISLHPKAKIEESPGAELVVTERILETSTRYPSPSPKPEGRFQGM
notes: mouse PD-1, soluble monomeric form used as SPR analyte; the construct used here is not described; also called mPD-1; murine PD-1
A Kd [2] of 4.02 µM and a Kd [3] of 10.7 µM were found for B1 in this work.

For B2, the “reduction of binding relative to wild type PD-1” value [4] was 50%.
